This sample holds only a part of the variants without activity.
How the values were obtained:
biotinyl-Trp-oxazolone = assay: self-aminoacylation, catalytic enhancement (BWO) (fold over background); higher = more active; k-Seq, kA / k0A0; sequences stand for … in GGGAAUGGAUCCACAUCUACGAAUUC…UUCACUGCAGACUUGACGAAGCUG
Method in brief: (§1)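 Each biotinyl-aminoacyl-oxazolone, at 2–1250 μM, was incubated with mutagenized RNA pools (0.43 μM) carrying a 21-nt variable region. The 50 μL reactions contained HEPES/NaCl/KCl/MgCl2/CaCl2 buffer with 5% acetonitrile at pH 6.9–7.0 and ran for 90 minutes at room temperature. After streptavidin capture, RNA was measured by qPCR in triplicate and by Illumina sequencing, and catalytic enhancement was calculated as median kA over the uncatalyzed rate from a pseudo-first-order fit of per-sequence fraction reacted.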

biotinyl-Val-oxazolone = assay: self-aminoacylation, catalytic enhancement (BVO) (fold over background); higher = more active; k-Seq, kA / k0A0; sequences stand for … in GGGAAUGGAUCCACAUCUACGAAUUC…UUCACUGCAGACUUGACGAAGCUG
Method in brief: as §1

biotinyl-Met-oxazolone = assay: self-aminoacylation, catalytic enhancement (BMO) (fold over background); higher = more active; k-Seq, kA / k0A0; sequences stand for … in GGGAAUGGAUCCACAUCUACGAAUUC…UUCACUGCAGACUUGACGAAGCUG
Method in brief: as §1

biotinyl-Leu-oxazolone = assay: self-aminoacylation, catalytic enhancement (BLO) (fold over background); higher = more active; k-Seq, kA / k0A0; sequences stand for … in GGGAAUGGAUCCACAUCUACGAAUUC…UUCACUGCAGACUUGACGAAGCUG
Method in brief: as §1

biotinyl-Phe-oxazolone = assay: self-aminoacylation, catalytic enhancement (BFO) (fold over background); higher = more active; k-Seq, kA / k0A0; sequences stand for … in GGGAAUGGAUCCACAUCUACGAAUUC…UUCACUGCAGACUUGACGAAGCUG
Method in brief: as §1

biotinyl-Ile-oxazolone = assay: self-aminoacylation, catalytic enhancement (BIO) (fold over background); higher = more active; k-Seq, kA / k0A0; sequences stand for … in GGGAAUGGAUCCACAUCUACGAAUUC…UUCACUGCAGACUUGACGAAGCUG
Method in brief: as §1

Row | Sequence | self-aminoacylation (biotinyl-Trp-oxazolone) | self-aminoacylation (biotinyl-Val-oxazolone) | self-aminoacylation (biotinyl-Met-oxazolone) | self-aminoacylation (biotinyl-Leu-oxazolone) | self-aminoacylation (biotinyl-Phe-oxazolone) | self-aminoacylation (biotinyl-Ile-oxazolone)
1 | GUUACCAUGGUCAUCGAGUGA [Fam2.1 aminoacylation ribozyme variant] | 10.3 | 5.22 | 8.11 | 9.59 | 28.3 | 5.01
2 | AAGUUUGCUAAUAUCCGCAAG [Fam3.1 aminoacylation ribozyme variant] | 0.739 | 0.886 | 0.725 | 0.845 | 1.18 | 0.911
3 | AUUCACCUGGGUCAUCGCGUG [Fam2.2 aminoacylation ribozyme variant] | 14.3 | 9.89 | 14.3 | 17.1 | 110 | 8.24
4 | AUUACCCUGGUCAUCGGGUGU [Fam2.1 aminoacylation ribozyme variant] | 133 | 56.5 | 123 | 136 | 722 | 40.7
5 | AUUACCCUGCUAAUCGAGUGA [Fam2.1 aminoacylation ribozyme variant] | 3.01 | 1.58 | 2.41 | 2.41 | 11.2 | 1.44
6 | AUUCAGGUAGGUCAUCGGGUG [Fam2.2 aminoacylation ribozyme variant] | 5.12 | 4.23 | 4.59 | 5.83 | 30.7 | 3.68
7 | AAGUUUGCUAAUAGUCACAAG [Fam3.1 aminoacylation ribozyme variant] | 4.08 | 1.35 | 1.45 | 1.21 | 12.3 | 1.47
8 | GUUACCCUGGUCAUCGCGUGA [Fam2.1 aminoacylation ribozyme variant] | 26.8 | 14.8 | 25.3 | 25.2 | 212 | 11.2
9 | UCACACUUUAAGCAAUCGGUC [Fam1B.1 aminoacylation ribozyme variant] | 0.764 | 0.857 | 0.694 | 0.791 | 0.841 | 0.869
10 | CCACACUUCAAGCGAUCGGUU [Fam1B.1 aminoacylation ribozyme variant] | 1.77 | 2.08 | 1.48 | 1.53 | 3.6 | 1.77
11 | AUUACCAUGGUCAUCGUGUGA [Fam2.1 aminoacylation ribozyme variant] | 5.96 | 2.2 | 4.58 | 4.26 | 27.8 | 1.9
12 | AUUCACCUAGGACGUCGGGUG [Fam2.2 aminoacylation ribozyme variant] | 1.42 | 1.88 | 1.91 | 1.91 | 9.18 | 1.66
13 | AUACUUCAAACAAGCGGUCUG [Fam1A.1 aminoacylation ribozyme variant] | 0.889 | 0.986 | 0.884 | 1.01 | 0.83 | 0.977
14 | CUACUGCAAACAAUCGGGCUG [Fam1A.1 aminoacylation ribozyme variant] | 0.887 | 1.98 | 1.69 | 1.61 | 8.54 | 1.74
15 | AGGUUUGAUAAUAGUCGCAAG [Fam3.1 aminoacylation ribozyme variant] | 1.8 | 1.54 | 1.57 | 1.67 | 3.51 | 1.55
16 | ACUACCCUGGGCAUCGAGUGA [Fam2.1 aminoacylation ribozyme variant] | 6.86 | 4.49 | 7.11 | 7.95 | 41.4 | 3.65
17 | AUUACCCAGGUCAUCGGGUGA [Fam2.1 aminoacylation ribozyme variant] | 11 | 7.25 | 11.5 | 12.6 | 75.2 | 5.86
18 | AUUCAUCCAGGUCAUCGGGUG [Fam2.2 aminoacylation ribozyme variant] | 6.96 | 4.75 | 7.87 | 9.76 | 47.8 | 4.96
19 | CUACCUCAAACAAUCGGUCUA [Fam1A.1 aminoacylation ribozyme variant] | 0.934 | 0.885 | 1.16 | 0.89 | 1.45 | 1.01
20 | GUUACCCUGCUCAUCGAGUGA [Fam2.1 aminoacylation ribozyme variant] | 3.45 | 1.79 | 3.06 | 2.23 | 8.33 | 1.66
21 | CUACUUCAAACCAGCGGUCUG [Fam1A.1 aminoacylation ribozyme variant] | 0.677 | 1.13 | 0.722 | 1.09 | 0.715 | 0.921
22 | CCACACUUCAACCAAUCGUUC [Fam1B.1 aminoacylation ribozyme variant] | 0.778 | 0.636 | 0.634 | 0.562 | 1.28 | 0.674
23 | AGUCACCUAGGUCACCGGGUG [Fam2.2 aminoacylation ribozyme variant] | 6.49 | 4.47 | 4.49 | 4.38 | 31.7 | 4.07
24 | AGUACCCAGGUCAUCGAGUGA [Fam2.1 aminoacylation ribozyme variant] | 6.61 | 3.2 | 5.45 | 5.05 | 16.6 | 3.36
25 | AUUACCCUGGUCAUCGGGUGA [Fam2.1 aminoacylation ribozyme variant] | 140 | 60.9 | 122 | 133 | 711 | 47
26 | AUUACCCUGGUCUACGAGUGA [Fam2.1 aminoacylation ribozyme variant] | 7.19 | 3.68 | 6.17 | 6.37 | 25.5 | 3.67

Row | Sequence | self-aminoacylation (biotinyl-Trp-oxazolone) | self-aminoacylation (biotinyl-Val-oxazolone) | self-aminoacylation (biotinyl-Met-oxazolone) | self-aminoacylation (biotinyl-Leu-oxazolone) | self-aminoacylation (biotinyl-Phe-oxazolone) | self-aminoacylation (biotinyl-Ile-oxazolone)
27 | CUACUUCAAACAAUCGUUAUG [Fam1A.1 aminoacylation ribozyme variant] | 0.59 | 0.627 | 0.48 | 0.523 | 0.899 | 0.683
28 | CUACUUCAAUCAUUCGGUCUG [Fam1A.1 aminoacylation ribozyme variant] | 1.13 | 0.992 | 0.805 | 0.896 | 0.652 | 1.1
29 | AUCCACCUAGGUCAUCGGGUU [Fam2.2 aminoacylation ribozyme variant] | 12 | 7.64 | 14.3 | 19 | 71.1 | 9.74
30 | GUCCACCUAGGUCAUCGGGUG [Fam2.2 aminoacylation ribozyme variant] | 6.85 | 4.67 | 4.1 | 4.46 | 35.1 | 4.43
31 | CUUACGCUGGUCAUCGAGUGA [Fam2.1 aminoacylation ribozyme variant] | 3.35 | 2.61 | 3.06 | 3.03 | 7.86 | 2.13
32 | CCACACUUCACGCAAUCGAUC [Fam1B.1 aminoacylation ribozyme variant] | 0.618 | 0.606 | 0.55 | 0.514 | 0.676 | 0.568
33 | CCACACUUCAAGCGAUCGCUC [Fam1B.1 aminoacylation ribozyme variant] | 2.83 | 2.03 | 1.85 | 2.28 | 4.68 | 2.62
34 | CCACACUUCAAGCCAUCGGCC [Fam1B.1 aminoacylation ribozyme variant] | 4.97 | 5 | 3.33 | 2.85 | 5.27 | 2.98
35 | CUAGUUCUAACAAUCGGUCUG [Fam1A.1 aminoacylation ribozyme variant] | 0.588 | 0.762 | 0.762 | 0.849 | 0.672 | 0.831
36 | ACGUUUGCUAAUAGUUGCAAG [Fam3.1 aminoacylation ribozyme variant] | 1.15 | 1.17 | 1.26 | 1.33 | 2.12 | 1.45
37 | CAACUUCAGACAAUCGGUCUG [Fam1A.1 aminoacylation ribozyme variant] | 1.43 | 1.09 | 0.989 | 1.08 | 2.46 | 1.09
38 | CUUCGCCUAGGUCAUCGGGUG [Fam2.2 aminoacylation ribozyme variant] | 5.8 | 4.54 | 3.41 | 4.47 | 37.4 | 3.75
39 | CUUACCCUGGUCACCGAGUGA [Fam2.1 aminoacylation ribozyme variant] | 8.62 | 4.49 | 9.14 | 8.9 | 57.1 | 3.87
40 | AUUCACCUAGGUCAUCGGCUA [Fam2.2 aminoacylation ribozyme variant] | 2.62 | 2.62 | 2.57 | 2.98 | 11.2 | 2.67
41 | AAGUCUGCUAAUCGUCGCAAG [Fam3.1 aminoacylation ribozyme variant] | 1.94 | 1.01 | 1.36 | 1.15 | 4.49 | 0.996
42 | CUACUCAAAACAAUCGGUCUG [Fam1A.1 aminoacylation ribozyme variant] | 1.23 | 0.968 | 1.11 | 0.676 | 1.27 | 1.02
43 | AUGACCCUGGUCAUCGAGAGA [Fam2.1 aminoacylation ribozyme variant] | 1.36 | 1.34 | 1.47 | 1.52 | 2.57 | 1.28
44 | AUUACCCUGGUGAUGGAGUGA [Fam2.1 aminoacylation ribozyme variant] | 5.69 | 2.55 | 5.67 | 5.75 | 31.1 | 2.62
45 | AUUCACCUAGGUCAAGGGGUG [Fam2.2 aminoacylation ribozyme variant] | 1.3 | 1.3 | 1.43 | 1.41 | 4.67 | 1.37
46 | UUUCACCUAGGUCUUCGGGUG [Fam2.2 aminoacylation ribozyme variant] | 5.4 | 4.51 | 4.63 | 5.06 | 29 | 4.04
47 | CUACUUCAAACAAUUGGACUG [Fam1A.1 aminoacylation ribozyme variant] | 0.443 | 0.641 | 0.633 | 0.664 | 0.671 | 0.709
48 | AUUCACCUAAGUCAUCGGAUG [Fam2.2 aminoacylation ribozyme variant] | 0.557 | 0.983 | 0.736 | 0.815 | 0.343 | 0.917
49 | AAGUUUCCUAAUAGUCCCAAG [Fam3.1 aminoacylation ribozyme variant] | 1.48 | 1.73 | 1.5 | 1 | 2.59 | 1.57
50 | AUUCACCGAGGCCAUCGGGUG [Fam2.2 aminoacylation ribozyme variant] | 4.78 | 4.36 | 5.31 | 6.39 | 32.8 | 3.16
51 | CUACUUCAAACAAUCGGGCGG [Fam1A.1 aminoacylation ribozyme variant] | 1.79 | 1.4 | 1.53 | 1.31 | 1.71 | 1.63

— the supplement of paper PMC9233669
